{"source": "patent US20260217843A1", "binders": {"B1": {"name": "positive control based on the sequences of the anti-hOX40L antibody amlitelimab (antibody, IgG4, V domains shown)", "VH": "EVQLVESGGGLVQPGGSLRLSCAASGFTFSNYAMNWVRQAPGKGLEWVSTISGSGGATRYADSVKGRFTISRDNSRNTVYLQMNSLRVEDTAVFYCTKDRLIMATVRGPYYYGMDVWGQGTTVTVSS", "VL": "DIQMTQSPSSLSASVGDRVTITCRASQSISSYLNWYQQKPGKAPNLLIYAASSLQSGVPSRFSGSGSETDFTLTISSLQPEDFATYYCQQSHSVSFTFGPGTKVDIK"}}, "key": {"[1]": {"target": "hOX40L added as soluble protein in cell assays (human) (UniProt P23510)", "sequence (P23510 51-183 limits assumed)": "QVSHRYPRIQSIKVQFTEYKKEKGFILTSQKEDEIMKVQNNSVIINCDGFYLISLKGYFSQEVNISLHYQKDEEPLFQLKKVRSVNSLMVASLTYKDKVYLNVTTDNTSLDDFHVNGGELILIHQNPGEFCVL", "assay": "cell-based or functional assay"}, "[2]": {"target": "Recombinant Human OX40L Protein, His Tag (Acro Cat. IL3-H52H4) (human) (UniProt P23510)", "sequence (P23510 51-183 limits assumed)": "as above", "assay": "SPR (Biacore 8K), antibody captured, human OX40L injected, 1:1 fit"}}}
{"binder": "B1", "values": [{"measurement": "IC50, luminescence (RLU), hOX40 reporter cells with 50 ng/mL hOX40L", "setting": "[1]", "value": 1.17, "unit": "nM"}, {"measurement": "Mean IFNγ concentration, MLR + OX40L (1000 ng/ml); donor pairing 1; antibody 4 nM", "setting": "[1]", "value": 201, "unit": "pg/mL"}, {"measurement": "Mean IFNγ concentration, MLR + OX40L (1000 ng/ml); donor pairing 1; antibody 20 nM", "setting": "[1]", "value": 41.4, "unit": "pg/mL"}, {"measurement": "Mean IFNγ concentration, MLR + OX40L (1000 ng/ml); donor pairing 1; antibody 100 nM", "setting": "[1]", "value": 145, "unit": "pg/mL"}, {"measurement": "Mean IFNγ concentration, MLR + OX40L (1000 ng/ml); donor pairing 3; antibody 4 nM", "setting": "[1]", "value": 1050, "unit": "pg/mL"}, {"measurement": "Mean IFNγ concentration, MLR + OX40L (1000 ng/ml); donor pairing 3; antibody 20 nM", "setting": "[1]", "value": 520, "unit": "pg/mL"}, {"measurement": "Mean IFNγ concentration, MLR + OX40L (1000 ng/ml); donor pairing 3; antibody 100 nM", "setting": "[1]", "value": 75.4, "unit": "pg/mL"}, {"measurement": "Mean IFNγ concentration, MLR + OX40L (1000 ng/ml); donor pairing 4; antibody 4 nM", "setting": "[1]", "value": 1170, "unit": "pg/mL"}, {"measurement": "Mean IFNγ concentration, MLR + OX40L (1000 ng/ml); donor pairing 4; antibody 20 nM", "setting": "[1]", "value": 424, "unit": "pg/mL"}, {"measurement": "Mean IFNγ concentration, MLR + OX40L (1000 ng/ml); donor pairing 4; antibody 100 nM", "setting": "[1]", "value": 161, "unit": "pg/mL"}, {"measurement": "Mean IFNγ concentration, MLR + OX40L (1000 ng/ml); donor pairing 5; antibody 4 nM", "setting": "[1]", "value": 1350, "unit": "pg/mL"}, {"measurement": "Mean IFNγ concentration, MLR + OX40L (1000 ng/ml); donor pairing 5; antibody 20 nM", "setting": "[1]", "value": 780, "unit": "pg/mL"}, {"measurement": "Mean IFNγ concentration, MLR + OX40L (1000 ng/ml); donor pairing 5; antibody 100 nM", "setting": "[1]", "value": 878, "unit": "pg/mL"}, {"measurement": "Mean IFNγ concentration, MLR + OX40L (1000 ng/ml); donor pairing 6; antibody 4 nM", "setting": "[1]", "value": 780, "unit": "pg/mL"}, {"measurement": "Mean IFNγ concentration, MLR + OX40L (1000 ng/ml); donor pairing 6; antibody 20 nM", "setting": "[1]", "value": 279, "unit": "pg/mL"}, {"measurement": "Mean IFNγ concentration, MLR + OX40L (1000 ng/ml); donor pairing 6; antibody 100 nM", "setting": "[1]", "value": 202, "unit": "pg/mL"}, {"measurement": "Mean IFNγ concentration, MLR + OX40L (1000 ng/ml); donor pairing 8; antibody 4 nM", "setting": "[1]", "value": 17.3, "unit": "pg/mL"}, {"measurement": "Mean IFNγ concentration, MLR + OX40L (1000 ng/ml); donor pairing 8; antibody 20 nM", "setting": "[1]", "value": 10.8, "unit": "pg/mL"}, {"measurement": "Mean IFNγ concentration, MLR + OX40L (1000 ng/ml); donor pairing 8; antibody 100 nM", "setting": "[1]", "value": 92.5, "unit": "pg/mL"}, {"measurement": "Kd", "setting": "[2]", "value": 0.071, "unit": "nM"}, {"measurement": "koff", "setting": "[2]", "value": 0.000112, "unit": "s⁻¹"}, {"measurement": "kon", "setting": "[2]", "value": "1.58e+06", "unit": "M⁻¹ s⁻¹"}]}
